Test results from the supplement of paper PMC10567573.

B1: EIF5 (parent)
chain: KQTIGNSCKACGYRGMLDTHHKLC
B2: CCDC89 (parent)
chain: LNAELEEKMMQEAEKLKAQGEYSR

Variants of: B1
Test: protein stability index of a GFP-peptide fusion (GPS, HEK-293T) (PSI 1-6); higher = more stable
Settings: c terminus: a fixed tail appended
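Note: lentivirally expressed fusions sorted by FACS into six bins by GFP to DsRed ratio, PSI derived from sequencing read proportions per bin multiplied by bin number.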

Protein stability index of substitutions, site by site:
I4: Y 3.08 | A 3.68 | L 3.73 | Q 4.17 | H 3.39 | T 3.29 | C 3.24 | M 3.63 | S 3.75 | R 3.31 | F 3.02 | P 3.44 | W 2.82 | D 3.95 | G 3.56 | K 3.41 | N 3.63 | V 3.57 | E 3.92
M16: E 4.14 | F 2.58 | D 4.72 | G 3.91 | A 3.94 | C 3.75 | H 4.16
G15: M 1.84 | Q 2.12 | L 2.44 | A 1.78 | N 2.45 | F 2.24 | Y 2.59 | I 2.26 | D 2.94 | T 2.27 | C 2.44 | R 2.72 | H 3.1 | W 1.52 | K 2.11 | V 2.12 | E 2.24 | P 2.93 | S 2.12
K9: A 3.57 | S 2.88 | Y 2.61 | V 3.13 | F 2.16 | G 2.82 | M 2.85 | L 2.6 | T 3.3 | C 3.97 | H 3.08 | E 3.5 | Q 3.11 | W 2.89 | I 2.97 | P 4.46 | R 2.79 | D 3.87 | N 2.79
G12: H 2.36 | R 2.66 | D 2.13 | V 1.62 | K 3.06 | P 1.84 | W 1.78 | Q 2.54 | F 1.73 | C 2.56 | Y 2.14 | S 1.52 | I 2.29 | T 2.5 | N 2.25 | E 2.93 | L 1.92 | A 1.37 | M 2.76
Y13: C 3.61 | I 2.16 | P 2 | R 3.24 | K 3.97 | G 2.75 | W 2.45 | H 2.77 | D 3.03 | T 3.19 | M 3.32 | Q 3.29 | V 2.91 | S 3.37 | F 3.21 | L 2.94 | A 3.7 | N 3.46 | E 3.75
C8: V 1.78 | H 1.91 | P 1.88 | K 2.28 | G 2.03 | T 2.05 | R 1.69 | A 2.06 | S 2.19 | M 1.86 | Q 1.91 | Y 1.44 | I 1.74 | F 1.44 | W 1.95 | E 2.68 | L 3.05 | N 2.78 | D 2.48
R14: D 3.41 | P 3.69 | Y 2.64 | W 2.12 | G 3.29 | C 4.75 | N 3.04 | K 3.89 | L 2.96 | Q 3.35 | I 3.33 | E 3.1 | H 3.42 | M 2.97 | T 3.52 | A 2.93 | F 3.14 | V 3.15 | S 3.51
G5: V 3.46 | A 3.23 | I 3.12 | T 2.99 | E 4.09 | M 4.13 | W 2.34 | D 3.53 | L 2.37 | N 3.44 | H 2.96 | Y 2.81 | P 3.41 | K 3.26 | R 2.53 | S 2.95 | C 3 | Q 3.3 | F 2.64
K1: S 3.31 | E 2.95 | V 2.95 | M 2.36 | N 3.22 | A 2.98 | L 2.9 | H 2.95 | P 3.6 | C 2.97 | R 3.18 | Q 3.14 | T 3.48 | W 3.05 | D 3.88 | Y 2.55 | I 2.04 | G 3.35 | F 2.55
Q2: E 3.74 | K 3.18 | M 2.85 | S 3.05 | G 3.22 | C 3.09 | H 3.6 | T 3.05 | R 2.56 | P 3.5 | Y 2.19 | N 3.02 | F 2.54 | W 1.93 | A 3.48 | I 2.51 | V 3 | L 2.61 | D 2.84
S7: R 3.11 | D 3.83 | N 3.25 | V 3.72 | A 3.96 | Q 4.08 | P 2.91 | M 3.58 | L 4.11 | G 3.5 | C 3.5 | T 3.29 | H 4.11 | W 2.64 | I 4.31 | Y 4.17 | F 3.91 | E 3.82 | K 3.93
A10: S 3.44 | T 3.36 | W 3.01 | P 2.63 | M 3.12 | Q 3 | C 3.09 | K 3.29 | F 4.01 | G 2.71 | E 4.16 | I 3.86 | N 2.85 | D 3.68 | V 3.33 | Y 4.03 | L 3.3 | R 3.27 | H 4.19
C11: W 2.06 | Y 2.4 | E 1.55 | M 1.73 | S 1.9 | V 2.88 | D 1.7 | F 2.17 | N 1.94 | Q 2.26 | L 2.28 | G 1.69 | H 1.53 | A 2.2 | K 1.88 | T 1.56 | P 1.92 | I 1.52 | R 1.61
T3: A 3.04 | P 3.66 | E 2.99 | Y 3.35 | V 2.38 | L 3.23 | C 2.92 | W 2.46 | Q 3.06 | G 3.15 | N 3.31 | D 4.01 | I 2.71 | H 3.67 | S 3.19 | M 3.5 | R 3.18 | K 3.4 | F 2.86
N6: C 3.71 | Q 3.95 | H 3.03 | D 3.63 | A 3.1 | R 2.84 | G 3.33 | V 3.52 | T 3.66 | W 2.62 | L 2.96 | M 2.83 | E 3.62 | Y 3.92 | P 3.12 | K 3.11 | I 3.84 | S 3.24 | F 3.34

Variants of: B2
Test: as above
Settings: c terminus: a fixed tail appended

Protein stability index, by site and new letter:
Y22: L 5.34 | D 5.99 | N 5.79 | S 5.28 | K 5.55 | Q 5.64 | M 5.29 | G 5.63 | E 4.65 | F 4.46 | I 5.29
R24: W 3.81 | V 5.64 | C 5.37 | D 5.67 | P 5.48 | F 4.66 | K 5.53 | A 5.49 | G 5.81 | I 4.86 | N 5.03 | S 5.38 | H 5.78 | Q 4.63 | M 4.99
S23: K 4.92 | W 4.97 | N 4.51 | L 5.2 | V 4.43 | D 5.7 | H 3.95 | Q 5.04 | T 4.98 | Y 4.47 | M 5.11 | A 4.62 | G 5.13 | I 4.19 | F 4.75 | C 4.73
